Substrate in the series: OC[C@H]1O[C@@H](O[C@H]2[C@H](O)[C@@H](O)C(O)O[C@@H]2CO)[C@H](O)[C@@H](O)[C@H]1O
The experiment in a line: Determination of KM with lactose as substrate. It is filed as biochemical, Paenibacillus wynnii. The conditions noted are these: 8 °C. The protocol: For the substrate solution 400 mM lactose was dissolved in Novo buffer (the composition of which is depicted in Table 4). The beta-galactosidase activity was determined in a thermo shaker in 1.5 mL reaction tubes at 8°C. The enzyme mix and the lactose solution were preincubated at 8 °C for 12 min. To start the enzymatic reaction 100 µL of the enzyme mix were added to 100 µL lactose solution. The reaction was carried out for 5 min at 8 °C. The reaction was stopped by adding 300 µL 1 M HClO4 to the enzyme-substrate-mix. The mix was kept on ice for 5 min before it was centrifuged at 13 000 rcf and 4 °C for 5 min. 160 µL of the supernatant were transferred to 75 µL 2 M KOH to neutralise the solution. The neutralisation step was checked using pH paper and the pH was adjusted if necessary. The solution was kept on ice for another 5 min before it was centrifuged at 13 000 rcf at 4 °C for 5 min. All assays were performed in triplicate. Table 4: Composition of Novo buffer
The kinetic parameters were determined using the natural substrate lactose. The reaction matrices and conditions were chosen in order to simulate conditions in milk systems. The chosen reaction matrices were Novo buffer (cf. Table 4, above) and milk diluted with Novo buffer. The reaction temperature was 8 °C and the pH value was 6.7.
For the determination of the KM values of P. wynnii beta-galactosidase lactose concentrations ranged from 0.76 mM to 97.5 mM. In order to obtain different lactose concentrations in milk, milk was diluted with Novo buffer. […] The enzyme activities were measured under initial reaction velocity conditions of the enzyme. The reaction times for the initial velocity of the enzymes were determined in previous experiments. The kinetic parameter KM was analysed using the Enzyme Kinetics Module in SigmaPlot 12.5 (Systat Software, Inc., San Jose, USA).
In the case of the studies in Novo buffer the enzyme activity decreased again with increasing lactose concentration. […] Table 6: Summary of the determined KM values using the Enzyme Kinetics Module in SigmaPlot 12.5. […]

B1: P. wynnii beta-galactosidase (SEQ ID NO: 1) (Paenibacillus wynnii) (protein)
chain: MRKKLVYSPPTNGYPEWNNNPECFQINRMDAHATWIPFNTTEDALLGDPQSSPNYLSLNGMWKFAYAETPDQRIRNFFEKNYDCSSWAELNVPSHWQMHGYDYPQYTNVRYPWSEREPELKPPFAPTQYNPVGSYVRTFSVPEDWSGKPVFISFQGVESAFYVWLNGELVGYSEDTFTPAEFDLTPYLIPGDNKLAVEVYRWCDASWLEDQDFWRLSGIFRDVYLYTTPEAHIYDFFVRTELDEQYRHAELQLDVKLMDYFERTAEAVIVHAQLYDHDQNAIFDQPLSQTVYFNSASTQTLQFSSSIIDPLKWSAEHPNLYTLVLSLHHVDGELMEAVSCRVGFRTFELKDGLMKINGKRIVFKGVNRHEFSCDTGRSIDVDDMVRDILLMKAHNINAVRTSHYPNQTIWYDLCDQYGLYVIDETNLETHGSWSYGQTDLGGNTVPGSRPEWRANVLDRCNSMLQRDKNHPSIVIWSLGNESFGGDNFVAMHDFLKKEDPSRLVHYEGLFHYRESDVASDIESTMYISPADVEQYALNDPKKPYILCEYSHAMGNSCGGLHLYWEVFEKYDILQGAFIWDWIDQAIRLKQADGSMHMAYGGDFGESPHDGNFCGNGLIFADRSVSPKLYEVKKCYQNVKFEAVDLERGIYRVTNQNLFTDLAEYALAWEVSCNGNPVLKGTVDLAVPAGESAEISVPVVDEPNLQSEGEHVLTFSLQLKKSTLWADAGHEVAWEQFLLPTPQFMAGQDQDSVLTSDRGVIVEEQAGRLTVQAADVSLQFSTSSGYLISMQNKGKELLLEPVRPNFWRAVTDNDLGNKHHERCAVWNTAGAGCTLASFESHKNVDGVTVRAKYTVPTVPISSLILEYRIQENGSIEVFEELSPGMGLPEIPEIGLMFIVEDRLDTVSWYGRGPHENYWDRKTGARLGYFSGSVQDQFVPYIRPQECGNKTDVRFASITGGINGSGFRVDGDPVLELNALPWTPAELEANDHIYKLPASNKTVVRVNYKQMGVGGDNSWGATTHPEFTLPADQTYGFRFTIRMV
As for B1, the Michaelis-Menten constant (Km) was 340 ± 84 µM (other: Novo buffer, pH 6.7, A: evaluation according to Michaelis-Menten, pH 6.7); 520 ± 89 µM (other: Novo buffer, pH 6.7, B: evaluation under consideration of substrate inhibition, pH 6.7); 630 µM (other: milk + Novo buffer).

What is called Km is the concentration of substrate that gives half-maximal velocity.

For the origin of these results see EP3911180B1, “PAENIBACILLUS WYNNII BETA-GALACTOSIDASE FOR THE PRODUCTION OF LACTOSE-DEPLETED AND GOS-ENRICHTED DAIRY PRODUCTS” (Universität Hohenheim, priority 2019, dated 2020).
